Laboratory results taken from publication PMC3215948 (The Journal of Cell Biology, 2006).
Like-named read-outs stand apart in the source and are kept apart here.

Tests used:
Assay in all cases: pull-down
His6-Vps45p_(L117R) = target: T1, His6-Vps45p_(L117R) (S. cerevisiae, UniProt P38932 1-577, L117R)
T1 sequence (looked up): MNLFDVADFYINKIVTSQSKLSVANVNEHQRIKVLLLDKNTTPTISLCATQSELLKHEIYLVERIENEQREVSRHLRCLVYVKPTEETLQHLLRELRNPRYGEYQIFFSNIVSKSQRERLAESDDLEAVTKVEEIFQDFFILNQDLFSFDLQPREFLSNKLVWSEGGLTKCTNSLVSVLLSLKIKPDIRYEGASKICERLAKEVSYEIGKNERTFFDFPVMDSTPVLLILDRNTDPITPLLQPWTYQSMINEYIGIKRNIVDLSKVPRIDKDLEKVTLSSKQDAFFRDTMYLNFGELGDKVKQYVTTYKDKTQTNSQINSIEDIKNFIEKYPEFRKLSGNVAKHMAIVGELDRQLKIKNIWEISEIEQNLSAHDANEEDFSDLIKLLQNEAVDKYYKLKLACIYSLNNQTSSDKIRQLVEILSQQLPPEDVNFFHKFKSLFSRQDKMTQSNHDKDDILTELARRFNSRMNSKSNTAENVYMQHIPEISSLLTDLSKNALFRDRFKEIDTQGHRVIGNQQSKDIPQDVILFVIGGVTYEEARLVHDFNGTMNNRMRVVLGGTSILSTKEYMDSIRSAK

His6-Vps45p [1] = target: T2, His6-Vps45p (S. cerevisiae, UniProt P38932 1-577)
T2 sequence (looked up): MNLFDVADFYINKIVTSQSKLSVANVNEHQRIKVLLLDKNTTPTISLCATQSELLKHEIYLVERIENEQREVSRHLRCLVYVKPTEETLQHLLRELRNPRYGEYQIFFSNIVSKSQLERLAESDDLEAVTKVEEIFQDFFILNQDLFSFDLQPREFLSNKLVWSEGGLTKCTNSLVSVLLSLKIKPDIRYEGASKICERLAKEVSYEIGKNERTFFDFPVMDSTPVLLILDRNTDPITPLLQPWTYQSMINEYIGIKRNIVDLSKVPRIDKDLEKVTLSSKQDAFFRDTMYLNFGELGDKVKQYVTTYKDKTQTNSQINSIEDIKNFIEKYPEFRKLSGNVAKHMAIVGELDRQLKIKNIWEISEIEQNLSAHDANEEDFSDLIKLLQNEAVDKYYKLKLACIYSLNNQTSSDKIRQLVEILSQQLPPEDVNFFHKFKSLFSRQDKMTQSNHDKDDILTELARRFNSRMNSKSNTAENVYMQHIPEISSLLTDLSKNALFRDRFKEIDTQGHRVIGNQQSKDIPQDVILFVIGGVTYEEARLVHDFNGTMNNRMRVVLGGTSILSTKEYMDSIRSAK

His6-Vps45p [2] = target: T2, His6-Vps45p; remark: listed apart in the source

B1: Snc2p-PrA (cytosolic domain of Snc2p fused to protein A) (domain or fragment, S. cerevisiae, UniProt P33328 1-88, looked up)
chain: MSSSVPYDPYVPPEESNSGANPNSQNKTAALRQEIDDTVGIMRDNINKVAERGERLTSIEDKADNLAISAQGFKRGANRVRKQMWWKD
Does B1 bind (His6-Vps45p_(L117R))?
Result: binds

B2: Snc2p_(cyto) (cytosolic domain of Snc2p, PrA tag removed by thrombin) (domain or fragment, S. cerevisiae, UniProt P33328 1-88, looked up)
chain: MSSSVPYDPYVPPEESNSGANPNSQNKTAALRQEIDDTVGIMRDNINKVAERGERLTSIEDKADNLAISAQGFKRGANRVRKQMWWKD
Does B2 bind (His6-Vps45p [1])?
Result: binds

B3: Snc2p_(Δ2–19)-PrA (domain or fragment, S. cerevisiae, UniProt P33328 1-88, looked up)
chain: MANPNSQNKTAALRQEIDDTVGIMRDNINKVAERGERLTSIEDKADNLAISAQGFKRGANRVRKQMWWKD
Does B3 bind (His6-Vps45p [2])?
Result: binds
